Assay results: patent US7468258

Target: T1, recombinant His-tagged VWF73 peptide substrate labeled with two fluoresceins
T1 chain: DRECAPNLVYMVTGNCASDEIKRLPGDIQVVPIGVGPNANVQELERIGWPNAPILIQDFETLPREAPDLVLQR

B1: ADAMTS13 (A Disintegrin-like And Metalloprotease with ThromboSpondin type 1 motif) (protein)
chain: AAGGILHLELLVAVGPDVFQAHQEDTERYVLTNLNIGAELLRDPSLGAQFRVHLVKMVILTEPEGAPNITANLTSSLLSVCGWSQTINPEDDTDPGHADLVLYITRFDLELPDGNRQVRGVTQLGGACSPTWSCLITEDTGFDLGVTIAHEIGHSFGLEHDGAPGSGCGPSGHVMASDGAAPRAGLAWSPCSRRQLLSLLSAGRARCVWDPPRPQPGSAGHPPDAQPGLYYSANEQCRVAFGPKAVACTFAREHLDMCQALSCHTDPLDQSSCSRLLVPLLDGTECGVEKWCSKGRCRSLVELTPIAAVHGRWSSWGPRSPCSRSCGGGVVTRRRQCNNPRPAFGGRACVGADLQAEMCNTQACEKTQLEFMSQQCARTDGQPLRSSPGGASFYHWGAAVPHSQGDALCRHMCRAIGESFIMKRGDSFLDGTRCMPSGPREDGTLSLCVSGSCRTFGCDGRMDSQQVWDRCQVCGGDNSTCSPRKGSFTAGRAREYVTFLTVTPNLTSVYIANHRPLFTHLAVRIGGRYVVAGKMSISPNTTYPSLLEDGRVEYRVALTEDRLPRLEEIRIWGPLQEDADIQVYRRYGEEYGNLTRPDITFTYFQPKPRQAWVWAAVRGPCSVSCGAGLRWVNYSCLDQARKELVETVQCQGSQQPPAWPEACVLEPCPPYWAVGDFGPCSASCGGGLRERPVRCVEAQGSLLKTLPPARCRAGAQQPAVALETCNPQPCPARWEVSEPSSCTSAGGAGLALENETCVPGADGLEAPVTEGPGSVDEKLPAPEPCVGMSCPPGWGHLDATSAGEKAPSPWGSIRTGAQAAHVWTPAAGSCSVSCGRGLMELRFLCMDSALRVPVQEELCGLASKPGSRREVCQAVPCPARWQYKLAACSVSCGRGVVRRILYCARAHGEDDGEEILLDTQCQGLPRPEPQEACSLEPCPPRWKVMSLGPCSASCGLGTARRSVACVQLDQGQDVEVDEAACAALVRPEASVPCLIADCTYRWHVGTWMECSVSCGDGIQRRRDTCLGPQAQAPVPADFCQHLPKPVTVRGCWAGPCVGQGTPSLVPHEEAAAPGRTTATPAGASLEWSQARGLLFSPAPQPRRLLPGPQENSVQSSACGRQHLEPTGTIDMRGPGQADCAVAIGRPLGEVVTLRVLESSLNCSAGDMLLLWGRLTWRKMCRKLLDMTFSSKTNTLVVRQRCGRPGGGVLLRYGSQLAPETFYRECDMQLFGPWGEIVSPSLSPATSNAGGCRLFINVAPHARIAIHALATNMGAGTEGANASYILIRDTHSLRTTAFHGQQVLYWESESSQAEMEFSEGFLKAQASLRGQYWTLQSWVPEMQDPQSWKGKEGT
  fluorescence of the recombinant peptide during incubation (FRET self-quenching cleavage assay, 96 well plate, fluorometer): With normal pooled plasma (PNP), there is steady increase of fluorescence over time
